The results in this text go back to the Immune Epitope Database (IEDB).

As a reminder, the IC50 is the concentration that inhibits the measured activity by half.

Among the targets are HLA-A*02:02; HLA-A*02:01; HLA-A*02:03; HLA-A*02:06; HLA-A*68:02.
Holding throughout (assay): IEDB peptide-MHC binding, purified MHC/competitive/radioactivity; ≥ and ≤ were set here for values at or beyond the usual limits of such assays
Setting [1] is: source organism: Vaccinia virus WR.
Setting [2] is: source organism: Hepacivirus hominis.
The mark [3] stands for this setting: source organism: Mammarenavirus brazilense.

On to HAFLCLFLL, for which the IC50 is 21 nM with HLA-A*02:02 (source organism: SARS-CoV1); 2.1 nM with HLA-A*02:01 (source organism: SARS-CoV1); 46 nM with HLA-A*02:03 (source organism: SARS-CoV1); 1.2 nM with HLA-A*02:06 (source organism: SARS-CoV1); 10 nM with HLA-A*68:02 (source organism: SARS-CoV1).
On to HIKTIAVSV, for which the 50% inhibitory concentration (IC50) is 3080 nM in the assay with HLA-A*02:02 (setting [1]); 1050 nM in the assay with HLA-A*02:01 (setting [1]); 9.6 nM with HLA-A*02:03 (setting [1]); 1550 nM with HLA-A*02:06 (setting [1]); 381 nM in the assay with HLA-A*68:02 (setting [1]).
For HILHAYCGI, the half-maximal inhibitory concentration (IC50) stood at 123 nM with HLA-A*02:02 (setting [1]); 1480 nM with HLA-A*02:01 (setting [1]); 66 nM in the assay with HLA-A*02:03 (setting [1]); 359 nM with HLA-A*02:06 (setting [1]); 143 nM in the assay with HLA-A*68:02 (setting [1]).
On to HLFTSMFSL, for which the IC50 turned out to be 5.2 nM in the assay with HLA-A*02:02 (setting [2]); 49 nM with HLA-A*02:01 (setting [2]); 105 nM with HLA-A*02:03 (setting [2]); 627 nM in the assay with HLA-A*02:06 (setting [2]); 181 nM with HLA-A*68:02 (setting [2]).
Take HLMSDNPKA: the IC50 with HLA-A*02:02 (setting [1]) was determined as 57 nM; with HLA-A*02:01 (setting [1]), 45 nM; in the assay with HLA-A*02:03 (setting [1]), 279 nM; in the assay with HLA-A*02:06 (setting [1]) it was 523 nM; with HLA-A*68:02 (setting [1]) it was 1100 nM.
As to HSLPRCWLV, the IC50 in the assay with HLA-A*02:02 (setting [3]) turned out to be 655 nM; in the assay with HLA-A*02:01 (setting [3]) it was 2130 nM; with HLA-A*02:03 (setting [3]) it was 147 nM; with HLA-A*02:06 (setting [3]), 323 nM; with HLA-A*68:02 (setting [3]), 660 nM.
For the sequence HVLLPFYETL, the concentration for half-maximal inhibition (IC50) is 29 nM in the assay with HLA-A*02:02 (setting [1]); 17 nM in the assay with HLA-A*02:01 (setting [1]); 213 nM in the assay with HLA-A*02:03 (setting [1]); 115 nM in the assay with HLA-A*02:06 (setting [1]); 2270 nM with HLA-A*68:02 (setting [1]).
In the case of IAACAMLLV, the IC50 with HLA-A*02:02 (source organism: SARS-CoV1) came to 320 nM; with HLA-A*02:01 (source organism: SARS-CoV1) it was 567 nM; with HLA-A*02:03 (source organism: SARS-CoV1), 387 nM; with HLA-A*02:06 (source organism: SARS-CoV1) it was 131 nM; in the assay with HLA-A*68:02 (source organism: SARS-CoV1), 389 nM.
Consider IAGGVCYYL, for which the IC50 was 53 nM with HLA-A*02:02 (setting [1]); 1930 nM with HLA-A*02:01 (setting [1]); 1680 nM in the assay with HLA-A*02:03 (setting [1]); 1410 nM with HLA-A*02:06 (setting [1]); 394 nM with HLA-A*68:02 (setting [1]).
For IALALEQYGI, the half-inhibitory concentration (IC50) with HLA-A*02:02 (setting [1]) stood at 980 nM; with HLA-A*02:01 (setting [1]) it was 3020 nM; with HLA-A*02:03 (setting [1]) it was 4920 nM; with HLA-A*02:06 (setting [1]), 1130 nM; with HLA-A*68:02 (setting [1]), 2900 nM.
Turning to IASILSLETV, the IC50 with HLA-A*02:02 (setting [1]) is 234 nM; in the assay with HLA-A*02:01 (setting [1]), 424 nM; with HLA-A*02:03 (setting [1]), 93 nM; in the assay with HLA-A*02:06 (setting [1]) it was 47 nM; with HLA-A*68:02 (setting [1]) it was 200 nM.
For the sequence IASSMKGENV, the IC50 in the assay with HLA-A*02:02 (setting [1]) was found to be 751 nM; in the assay with HLA-A*02:01 (setting [1]), 727 nM; with HLA-A*02:03 (setting [1]) it was 3240 nM; in the assay with HLA-A*02:06 (setting [1]) it was 311 nM; with HLA-A*68:02 (setting [1]), 867 nM.
On the same counts, the results for IAVITETIPI are 515 nM, 53 nM, 32 nM, 1 nM and 154 nM.
As to IAVSVYGAI, the 50% inhibitory concentration (IC50) with HLA-A*02:02 (setting [1]) was 1480 nM; in the assay with HLA-A*02:01 (setting [1]), 884 nM; with HLA-A*02:03 (setting [1]), 124 nM; with HLA-A*02:06 (setting [1]) it was 1100 nM; with HLA-A*68:02 (setting [1]), 7.8 nM.
Turning to IIAVFDSKL, the IC50 with HLA-A*02:02 (setting [1]) was determined as 44 nM; with HLA-A*02:01 (setting [1]) it was 1760 nM; with HLA-A*02:03 (setting [1]), 107 nM; with HLA-A*02:06 (setting [1]), 99 nM; with HLA-A*68:02 (setting [1]), 2320 nM.
Regarding IICEDAMYYA, the IC50 in the assay with HLA-A*02:02 (setting [1]) was 24 nM; in the assay with HLA-A*02:01 (setting [1]), 23 nM; with HLA-A*02:03 (setting [1]) it was 108 nM; with HLA-A*02:06 (setting [1]), 8.8 nM; in the assay with HLA-A*68:02 (setting [1]) it was 746 nM.
On to IIFWFSLEI, for which the IC50 was found to be 1.8 nM with HLA-A*02:02 (source organism: SARS-CoV1); 9 nM in the assay with HLA-A*02:01 (source organism: SARS-CoV1); 87 nM with HLA-A*02:03 (source organism: SARS-CoV1); 4.6 nM in the assay with HLA-A*02:06 (source organism: SARS-CoV1); 520 nM with HLA-A*68:02 (source organism: SARS-CoV1).
With IIMAINVFT, the IC50 with HLA-A*02:02 (setting [1]) came out at 39 nM; with HLA-A*02:01 (setting [1]), 27 nM; with HLA-A*02:03 (setting [1]) it was 180 nM; in the assay with HLA-A*02:06 (setting [1]), 10 nM; with HLA-A*68:02 (setting [1]), 84 nM.
Take IINSVSIILA: the IC50 came out at 719 nM with HLA-A*02:02 (setting [1]); 895 nM in the assay with HLA-A*02:01 (setting [1]); 890 nM with HLA-A*02:03 (setting [1]); 957 nM with HLA-A*02:06 (setting [1]); 154 nM in the assay with HLA-A*68:02 (setting [1]).
In the case of IIPFIAYFVL, the concentration for half-maximal inhibition (IC50) with HLA-A*02:02 (setting [1]) was 715 nM; in the assay with HLA-A*02:01 (setting [1]) it was 991 nM; in the assay with HLA-A*02:03 (setting [1]) it was 4730 nM; with HLA-A*02:06 (setting [1]), 852 nM; with HLA-A*68:02 (setting [1]) it was 76 nM.
Consider IISLFYTFAI, for which the IC50 with HLA-A*02:02 (setting [1]) was determined as 108 nM; with HLA-A*02:01 (setting [1]) it was 290 nM; with HLA-A*02:03 (setting [1]), 44 nM; in the assay with HLA-A*02:06 (setting [1]) it was 146 nM; with HLA-A*68:02 (setting [1]), 144 nM.
On the same counts, the results for IISSKQYPA are 164 nM, 410 nM, 612 nM, 1160 nM and 3580 nM.
Regarding IISYIILFI, the IC50 with HLA-A*02:02 (setting [1]) stood at 2.8 nM; with HLA-A*02:01 (setting [1]), 12 nM; with HLA-A*02:03 (setting [1]) it was 59 nM; with HLA-A*02:06 (setting [1]), 27 nM; in the assay with HLA-A*68:02 (setting [1]), 5.7 nM.
